We go through 30 molecules from patent US9187525B2, “Methods of treating ophthalmic diseases using NPR-B agonists” (Shire Orphan Therapies GmbH, dated 2015).

Numbered stars: 1 amine (or outer) side, 2 acyl side, 3 side chain; on linkers, the order of the positions; unused ones are H or OH. Square brackets hold non-standard residues; d marks the D form. Ends that are not written are not given here. * marks the point of attachment. aFL = (S)-2-((R)-3-amino-2-oxopyrrolidin-1-yl)-3-phenylpropanoic acid, O=C1[C@H](N[*:1])CCN1[C@@H](Cc1ccccc1)C(=O)[*:2]; ctb = (S)-2-amino-3-(tert-butylthio)propanoic acid, CC(C)(C)SC[C@@H](N[*:1])C(=O)[*:2]; 6988 = 2-pentyl-benzooxazole-5-carboxylic acid, CCCCCc1nc2cc(C(=O)*)ccc2o1; 3421 = 3-Amino-4-hydroxy-benzoic acid, O=C(c1ccc(O[*:3])c(N[*:1])c1)[*:2]; 4703 = 3-(4-bromo-phenyl)-propionic acid, O=C(CCc1ccc(Br)cc1)*; 4734 = (4-butoxy-phenyl)-acetic acid, CCCCOc1ccc(CC(=O)*)cc1; Pro(trans-4-NH2) = O=C([C@@H]1C[C@@H](N[*:3])CN1[*:1])[*:2]; Sni = (S)-nipecotic acid, O=C([C@H]1CCCN([*:1])C1)[*:2]; 1695 = Piperidine-1,2-dicarboxylic acid 1-benzyl ester; Butanoyl(4-(4-MeO-phenyl)) = COc1ccc(CCCC(=O)*)cc1; Phe(3,4-Cl2) = N[C@@H](Cc1ccc(Cl)c(Cl)c1)C(=O)O; Phe(3-CF3) = N[C@@H](Cc1cccc(C(F)(F)F)c1)C(=O)O; Phe(2-CF3) = N[C@@H](Cc1ccccc1C(F)(F)F)C(=O)O; Pbf = Cc1c(C)c(S(=O)(=O)*)c(C)c2c1OC(C)(C)C2; Phe(3-Cl) = N[C@@H](Cc1cccc(Cl)c1)C(=O)O; Pentanoyl(5-Ph) = O=C(CCCCc1ccccc1)*; Gly(NCH2CH2Ph) = O=C(O)CNCCc1ccccc1; Butanoyl(4-Ph) = O=C(CCCc1ccccc1)*; Gly(cPent) = N[C@H](C(=O)O)C1CCCC1; dDap(Me2) = CN(C)C[C@@H](N)C(=O)O; Hyp = O=C(O)[C@@H]1C[C@@H](O)CN1; 3Thi = N[C@@H](Cc1ccsc1)C(=O)O; NMeL = CN[C@@H](CC(C)C)C(=O)O; Chg = N[C@H](C(=O)O)C1CCCCC1; Nle = CCCC[C@H](N)C(=O)O; Nphe = O=C(O)CNCc1ccccc1; Octanoyl = CCCCCCCC(=O)*; Api = NC1(C(=O)O)CCNCC1; Che = not defined here; Hexanoyl = CCCCCC(=O)*; leu = not defined here; Occ = octanoic acid

T1: natriuretic peptide receptor-B (human)
T1 chain: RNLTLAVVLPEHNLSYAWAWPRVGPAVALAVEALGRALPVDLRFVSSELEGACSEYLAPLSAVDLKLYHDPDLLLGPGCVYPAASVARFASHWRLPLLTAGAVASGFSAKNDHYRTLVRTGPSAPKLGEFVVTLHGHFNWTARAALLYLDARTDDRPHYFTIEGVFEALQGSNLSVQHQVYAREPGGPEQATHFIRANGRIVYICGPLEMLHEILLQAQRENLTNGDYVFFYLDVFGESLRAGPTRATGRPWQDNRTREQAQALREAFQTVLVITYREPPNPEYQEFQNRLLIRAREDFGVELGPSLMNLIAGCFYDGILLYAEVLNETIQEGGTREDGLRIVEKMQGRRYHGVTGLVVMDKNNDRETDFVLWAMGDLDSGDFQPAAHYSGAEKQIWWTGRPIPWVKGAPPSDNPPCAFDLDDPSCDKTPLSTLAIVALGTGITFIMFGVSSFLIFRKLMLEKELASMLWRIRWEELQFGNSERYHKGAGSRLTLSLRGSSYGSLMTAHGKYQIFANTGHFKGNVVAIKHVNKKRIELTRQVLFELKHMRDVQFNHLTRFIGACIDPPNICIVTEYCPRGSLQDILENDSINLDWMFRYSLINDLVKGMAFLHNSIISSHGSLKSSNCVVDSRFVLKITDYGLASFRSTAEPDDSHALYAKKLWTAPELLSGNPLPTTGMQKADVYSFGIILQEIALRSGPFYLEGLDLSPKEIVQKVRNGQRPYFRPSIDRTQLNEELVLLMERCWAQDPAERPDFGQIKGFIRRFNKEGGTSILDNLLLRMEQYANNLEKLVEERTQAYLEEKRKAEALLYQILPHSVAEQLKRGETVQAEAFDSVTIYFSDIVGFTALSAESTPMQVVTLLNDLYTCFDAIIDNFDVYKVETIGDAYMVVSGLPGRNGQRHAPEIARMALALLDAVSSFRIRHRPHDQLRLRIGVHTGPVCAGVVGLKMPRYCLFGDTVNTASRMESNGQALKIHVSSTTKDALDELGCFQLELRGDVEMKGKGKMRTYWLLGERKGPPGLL

B1: JAL-1605 (peptide)
peptide: {Butanoyl(4-Ph)}-[Sni]F[dL]L[Hyp][NMeL]DRI-NH2
B2: JAL-1604 (peptide)
peptide: [Occ][Sni]F[dDap(Me2)]L[Hyp][NMeL]DP[Che]
modifications: reading uncertain; also: printed as Occ-Sni-Phe-dap(Me2)-Leu-Hyp-Nml-Asp-Pro-Che
B3: JAL-1621 (peptide)
peptide: [Occ][Sni][Phe(3-CF3)][leu]L[Hyp][NMeL]DRI-NH2
modifications: reading uncertain; also: printed as Occ-Sni-Mtf-leu-Leu-Hyp-Nml-Asp-Arg-Ile-NH2
B4: JAL-1636 (peptide)
peptide: [Occ][aFL][leu]L[Hyp][NMeL]DRI-NH2
modifications: reading uncertain; also: printed as Occ-(aFL)-leu-Leu-Hyp-Nml-Asp-Arg-Ile-NH2
B5: JAL-1615 (peptide)
peptide: 6988-[Sni]F[dL]L[Hyp][NMeL]DRI-NH2
B6: JAL-1623 (peptide)
peptide: [Occ][Sni]F[ctb]L[Hyp][NMeL]DRI-NH2
B7: JAL-1602 (peptide)
peptide: [Occ][Sni]F[Api]L[Pro(trans-4-NH2)][NMeL]DP[Che]
modifications: reading uncertain; also: printed as Occ-Sni-Phe-Apc-Leu-Tap-Nml-Asp-Pro-Che
B8: JAL-1606 (peptide)
peptide: {Pentanoyl(5-Ph)}-[Sni]F[dL]L[Hyp][NMeL]DRI-NH2
B9: JAL-1634 (peptide)
peptide: [Occ][Sni][Nphe][leu]L[Hyp][NMeL]DRI-NH2
modifications: reading uncertain; also: printed as Occ-Sni-NPhe-leu-Leu-Hyp-Nml-Asp-Arg-Ile-NH2
B10: JAL-0701 (peptide)
peptide: Octanoyl-[dA][dA]FGLKLDRI-NH2
B11: JAL-1627 (peptide)
peptide: [Occ][Sni]F[leu]L[Hyp][Chg]DRI-NH2
modifications: reading uncertain; also: printed as Occ-Sni-Phe-leu-Leu-Hyp-Chg-Asp-Arg-Ile-NH2
B12: JAL-1635 (peptide)
peptide: [Occ][Sni][Gly(NCH2CH2Ph)][leu]L[Hyp][NMeL]DRI-NH2
modifications: reading uncertain; also: printed as Occ-Sni-NHfe-leu-Leu-Hyp-Nml-Asp-Arg-Ile-NH2
B13: JAL-1618 (peptide)
peptide: Octanoyl-[Sni][Phe(3-Cl)][dL]L[Hyp][NMeL]DRI-NH2
modifications: not fully specified; printed as Occ-Sni-Mcf-leu-Leu-Hyp-Nml-Asp-Arg-Ile-NH2
B14: JAL-1624 (peptide)
peptide: [Occ][Sni]F[leu][Nle][Hyp][NMeL]DRI-NH2
modifications: reading uncertain; also: printed as Occ-Sni-Phe-leu-Nle-Hyp-Nml-Asp-Arg-Ile-NH2
B15: JAL-1617 (peptide)
peptide: 1695-[Sni]F[dL]L[Hyp][NMeL]DRI-NH2
modifications: not fully specified; printed as 1695-Sni-Phe-leu-Leu-Hyp-Nml-Asp-Arg-Ile-NH2
B16: JAL-1600 (peptide)
peptide: [Occ][Sni]FGL[Hyp][NMeL]DP[Che]
modifications: reading uncertain; also: printed as Occ-Sni-Phe-Gly-Leu-Hyp-Nml-Asp-Pro-Che
B17: JAL-1616 (peptide)
peptide: Hexanoyl-[3421][Sni]F[dL]L[Hyp][NMeL]DRI-NH2
modifications: not fully specified; printed as Hex-(3421)-Sni-Phe-leu-Leu-Hyp-Nml-Asp-Arg-Ile-NH2
B18: JAL-1601 (peptide)
peptide: [Occ][Sni]F[Api]L[Hyp][NMeL]DP[Che]
modifications: reading uncertain; also: printed as Occ-Sni-Phe-Apc-Leu-Hyp-Nml-Asp-Pro-Che
B19: JAL-1626 (peptide)
peptide: [Occ][Sni]F[leu]L[Hyp][Gly(cPent)]DRI-NH2
modifications: reading uncertain; also: printed as Occ-Sni-Phe-leu-Leu-Hyp-Cpg-Asp-Arg-Ile-NH2
B20: JAL-1625 (peptide)
peptide: [Occ][Sni]F[leu]L[Hyp]IDRI-NH2
modifications: reading uncertain; also: printed as Occ-Sni-Phe-leu-Leu-Hyp-Ile-Asp-Arg-Ile-NH2
B21: JAL-1609 (peptide)
peptide: 4734-[Sni]F[dL]L[Hyp][NMeL]DRI-NH2
B22: JAL-1599 (peptide)
peptide: Octanoyl-[Sni][Phe(3,4-Cl2)][dL]L[Hyp][NMeL]DP[Che]
modifications: not fully specified; printed as Occ-Sni-Eaa-leu-Leu-Hyp-Nml-Asp-Pro-Che; reading uncertain
B23: JAL-1612 (peptide)
peptide: 4703-[Sni]F[dL]L[Hyp][NMeL]DRI-NH2
B24: JAL-1619 (peptide)
peptide: [Occ][Sni][Pbf][leu]L[Hyp][NMeL]DRI-NH2
modifications: reading uncertain; also: printed as Occ-Sni-Pbf-leu-Leu-Hyp-Nml-Asp-Arg-Ile-NH2
B25: JAL-1622 (peptide)
peptide: [Occ][Sni][Phe(2-CF3)][leu]L[Hyp][NMeL]DRI-NH2
modifications: reading uncertain; also: printed as Occ-Sni-Otf-leu-Leu-Hyp-Nml-Asp-Arg-Ile-NH2
B26: JAL-0696 (peptide)
peptide: {Pentanoyl(5-Ph)}-[dP]FGLKLDRI-NH2
B27: JAL-1620 (peptide)
peptide: [Occ][Sni][3Thi][leu]L[Hyp][NMeL]DRI-NH2
modifications: reading uncertain; also: printed as Occ-Sni-Thk-leu-Leu-Hyp-Nml-Asp-Arg-Ile-NH2
B28: JAL-1603 (peptide)
peptide: [Occ][Sni]F[dDap(Me2)]L[Pro(trans-4-NH2)][NMeL]DP[Che]
modifications: reading uncertain; also: printed as Occ-Sni-Phe-dap(Me2)-Leu-Tap-Nml-Asp-Pro-Che
B29: JAL-1607 (peptide)
peptide: {Butanoyl(4-(4-MeO-phenyl))}-[Sni]F[dL]L[Hyp][NMeL]DRI-NH2
B30: JAL-0697 (peptide)
peptide: XXFGLKLDRI
HELM: PEPTIDE1{[CCCCCCCC(=O)[*:2]].[O=C(C1CCCN([*:1])C1)[*:2]].F.G.L.K.L.D.R.I.[am]}$$$$V2.0
SMILES: CCCCCCCC(=O)N1CCCC(C(=O)N[C@@H](Cc2ccccc2)C(=O)NCC(=O)N[C@@H](CC(C)C)C(=O)N[C@@H](CCCCN)C(=O)N[C@@H](CC(C)C)C(=O)N[C@@H](CC(=O)O)C(=O)N[C@@H](CCCNC(=N)N)C(=O)N[C@H](C(N)=O)[C@@H](C)CC)C1

The target of the experiment is T1, natriuretic peptide receptor-B. Put plainly: cell-based or functional assay.
Turning to B1, the “EC50 group, cGMP in GTM-3 cells” value is at most 1 µM.
To B2 belongs at most 1 µM; to B3, at most 1 µM.
To B4 belongs at most 5 µM.
Regarding B5, the “EC50 group, cGMP in GTM-3 cells” value is at most 15 µM.
In the case of B6, the “EC50 group, cGMP in GTM-3 cells” value is at most 1 µM.
The value for B7 was at most 1 µM.
To B8 belongs at most 1 µM; to B9, at most 15 µM; to B10, at most 5 µM.
Regarding B11, the “EC50 group, cGMP in GTM-3 cells” value is at most 5 µM.
The value for B12 was at most 15 µM; that for B13 was at most 1 µM; that for B14 was at most 1 µM.
The value for B15 was at most 15 µM.
As for B16, the “EC50 group, cGMP in GTM-3 cells” value is at most 5 µM.
To B17 belongs at most 5 µM; to B18, at most 5 µM.
To B19 belongs at most 1 µM.
In the case of B20, the “EC50 group, cGMP in GTM-3 cells” value is at most 1 µM.
Take B21: the “EC50 group, cGMP in GTM-3 cells” value was at most 5 µM.
To B22 belongs at most 1 µM; to B23, at most 5 µM; to B24, at most 1 µM.
Take B25: the “EC50 group, cGMP in GTM-3 cells” value is at most 15 µM.
The value for B26 was at most 15 µM.
As to B27, the “EC50 group, cGMP in GTM-3 cells” value was at most 1 µM.
To B28 belongs at most 1 µM; to B29, at most 15 µM.
The value for B30 was at most 5 µM.
